Assays:
recombinant GFP–C-Myc = recombinant GFP–C-Myc (UniProt P01106 1-454); assay: MST
recombinant GFP–N-Myc = target: T1, recombinant GFP–N-Myc (UniProt P04198 1-464); assay: MST
T1 chain: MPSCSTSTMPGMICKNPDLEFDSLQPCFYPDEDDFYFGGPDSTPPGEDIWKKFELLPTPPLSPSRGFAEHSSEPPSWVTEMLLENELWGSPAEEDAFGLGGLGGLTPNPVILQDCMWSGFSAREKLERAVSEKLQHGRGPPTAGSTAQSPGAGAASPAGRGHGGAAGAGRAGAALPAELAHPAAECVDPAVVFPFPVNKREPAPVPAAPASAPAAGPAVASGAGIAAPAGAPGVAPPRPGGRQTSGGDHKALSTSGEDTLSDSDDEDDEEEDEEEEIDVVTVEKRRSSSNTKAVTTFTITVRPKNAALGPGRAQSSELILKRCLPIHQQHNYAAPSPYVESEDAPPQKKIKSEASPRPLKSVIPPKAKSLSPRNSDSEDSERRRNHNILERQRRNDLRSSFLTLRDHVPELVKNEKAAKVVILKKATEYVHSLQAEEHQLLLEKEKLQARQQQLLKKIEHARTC

recombinant GFP–C-Myc, sequence (P01106 whole entry): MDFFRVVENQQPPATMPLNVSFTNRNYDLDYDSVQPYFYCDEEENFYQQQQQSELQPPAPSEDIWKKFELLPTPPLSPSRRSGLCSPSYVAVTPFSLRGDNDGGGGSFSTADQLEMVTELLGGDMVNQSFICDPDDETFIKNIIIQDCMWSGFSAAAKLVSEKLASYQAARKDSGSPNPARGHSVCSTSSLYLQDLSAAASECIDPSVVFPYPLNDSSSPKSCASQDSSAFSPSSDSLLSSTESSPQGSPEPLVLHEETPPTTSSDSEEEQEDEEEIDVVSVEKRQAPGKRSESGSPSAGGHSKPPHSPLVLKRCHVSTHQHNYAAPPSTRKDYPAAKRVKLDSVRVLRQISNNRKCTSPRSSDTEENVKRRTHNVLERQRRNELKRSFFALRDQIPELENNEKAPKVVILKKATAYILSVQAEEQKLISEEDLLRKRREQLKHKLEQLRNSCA

EC50 (recombinant GFP–C-Myc): 2.54 nM
EC50 (recombinant GFP–N-Myc): 0.0983 nM
B1: KLHL37-His recombinant protein (natural protein)
chain: MSVSVHENRKSRASSGSINIYLFHKSSYADSVLTHLNLLRQQRLFTDVLLHAGNRTFPCHRAVLAACSRYFEAMFSGGLKESQDSEVNFDNSIHPEVLELLLDYAYSSRVIINEENAESLLEAGDMLEFQDIRDACAEFLEKNLHPTNCLGMLLLSDAHQCTKLYELSWRMCLSNFQTIRKNEDFLQLPQDMVVQLLSSEELETEDERLVYESAINWISYDLKKRYCYLPELLQTVRLALLPAIYLMENVAMEELITKQRKSKEIVEEAIRCKLKILQNDGVVTSLCARPRKTGHALFLLGGQTFMCDKLYLVDQKAKEIIPKADIPSPRKEFSACAIGCKVYITGGRGSENGVSKDVWVYDTLHEEWSKAAPMLVARFGHGSAELKHCLYVVGGHTAATGCLPASPSVSLKQVEHYDPTINKWTMVAPLREGVSNAAVVSAKLKLFAFGGTSVSHDKLPKVQCYDQCENRWTVPATCPQPWRYTAAAVLGNQIFIMGGDTEFSACSAYKFNSETYQWTKVGDVTAKRMSCHAVASGNKLYVVGGYFGIQRCKTLDCYDPTLDVWNSITTVPYSLIPTAFVSTWKHLPS
